This note sets out measurements from patent US6635450 (FRED HUTCHINSON CANCER RESEARCH CENTER, dated 2003).

The assay has as its target Cdk2 alone (baculoviral HA-tagged Cdk2 immunoadsorbed to sepharose beads) (UniProt P24941 1-298). As to the kind of experiment: depletion of the Cdk2 inhibitor from Mv1Lu cell extracts on Cdk2 sepharose beads, read by cyclin E-associated H1 kinase activity. As for the experimental part: Cyclin E-Cdk2 sepharose was prepared by mixing 1.2 µl of Sf9 cell lysate containing Hemagglutinin tagged Cdk2 (Cdk2 -HA) with 12 µl lysate containing cyclin E in buffer A (30 mM HEPES-KCH pH 7.5, 7.5 mM MgCl_2, 1 mM DTT) containing 10 mM ATP and incubated at room temperature for 30 minutes to allow complete formation. The assembly reaction was then adjusted to 250 mM NaCl and 0.5% NP40. The Cdk2-HA containing complexes were immunoprecipitated with the 12CA5 monoclonal antibody (BABCO) and collected on protein A-sepharose. Cdk2 sepharose was prepared in an identical manner except cyclin E was omitted. Immunoprecipitates were washed twice with NP40 RIPA buffer ([…], 250 mM NaCl, 10 mM EDTA, 20 mM Tris-HCl pH 7.4) and four times with buffer A. The matrix was divided into 4 aliquots and incubated with 100 µg of cell extract in buffer A containing 3 mM ATP, 20 µg/ml creatine phosphokinase, 40 mM phospho-creatine for 45 minutes at 37° C. After incubation the supernatant was collected and assayed for Cdk2 activation by addition of recombinant cyclin E as described below. A critical parameter in the execution of this experiment is to ensure that no cyclin, Cdk or complex leaks from the beads into the cell extract. This is unpredictable and must be checked by immunoblotting each time the experiment is performed.

B1: p27 protein, the 27 kD cyclin E-Cdk2 binding protein of Mv1Lu mink epithelial cells (endogenous) (other)
chain: MSNVRVSNGSPSLERMDARQAEYPKPSACRNLFGPVNHEELTRDLEKHRRDMEEASQRKWNFDFQNHKPLEGKYEWQEVEKGSLPEFYYRPPRPPKGACKVPAQESQDVSGTRQAVPLMGSQANSEDTHLVDQKTDTADNQAGLAEQCTGIRKRPATDDSSPQNKRANRTEENVSDGS
notes: also called p27^Kip1; Kip1
As to B1, the binding result is given as “no binding”.
